Data as given in patent US20110152352A1 (TUFTS UNIVERSITY, published 2011).

B1: GST-Smad1 (MH1 domain) fusion protein (other, UniProt Q15797 12-136, looked up)
chain: PAVKRLLGWKQGDEEEKWAEKAVDALVKKLKKKKGAMEELEKALSCPGQPSNCVTIPRSLDGRLQVSHRKGLPHVIYCRVWRWPDLQSHHELKPLECCEFPFGSKQKEVCINPYHYKRVESPVLP
notes: domain: MH1; also called s1-n219; amino-terminal MH1 domain of Smad1; not shown: glutathione S-transferase (GST) tag
B2: inhibitor Smad6 (other, UniProt O43541 1-496, looked up)
chain: MFRSKRSGLVRRLWRSRVVPDREEGGSGGGGGGDEDGSLGSRAEPAPRAREGGGCGRSEVRPVAPRRPRDAVGQRGAQGAGRRRRAGGPPRPMSEPGAGAGSSLLDVAEPGGPGWLPESDCETVTCCLFSERDAAGAPRDASDPLAGAALEPAGGGRSREARSRLLLLEQELKTVTYSLLKRLKERSLDTLLEAVESRGGVPGGCVLVPRADLRLGGQPAPPQLLLGRLFRWPDLQHAVELKPLCGCHSFAAAADGPTVCCNPYHFSRLCGPESPPPPYSRLSPRDEYKPLDLSDSTLSYTETEATNSLITAPGEFSDASMSPDATKPSHWCSVAYWEHRTRVGRLYAVYDQAVSIFYDLPQGSGFCLGQLNLEQRSESVRRTRSKIGFGILLSKEPDGVWAYNRGEHPIFVNSPTLDAPGGRALVVRKVPPGYSIKVFDFERSGLQHAPEPDAADGPYDPNSVRISFAKGWGPCYSRQFITSCPCWLEILLNNPR
B3: RNA helicase p68 (human p68 cDNA construct, expressed in transfected Cos7 cells) (enzyme, UniProt P17844 1-614, looked up)
chain: MSGYSSDRDRGRDRGFGAPRFGGSRAGPLSGKKFGNPGEKLVKKKWNLDELPKFEKNFYQEHPDLARRTAQEVETYRRSKEITVRGHNCPKPVLNFYEANFPANVMDVIARQNFTEPTAIQAQGWPVALSGLDMVGVAQTGSGKTLSYLLPAIVHINHQPFLERGDGPICLVLAPTRELAQQVQQVAAEYCRACRLKSTCIYGGAPKGPQIRDLERGVEICIATPGRLIDFLECGKTNLRRTTYLVLDEADRMLDMGFEPQIRKIVDQIRPDRQTLMWSATWPKEVRQLAEDFLKDYIHINIGALELSANHNILQIVDVCHDVEKDEKLIRLMEEIMSEKENKTIVFVETKRRCDELTRKMRRDGWPAMGIHGDKSQQERDWVLNEFKHGKAPILIATDVASRGLDVEDVKFVINYDYPNSSEDYIHRIGRTARSTKTGTAYTFFTPNNIKQVSDLISVLREANQAINPKLLQLVEDRGSGRSRGRGGMKDDRRDRYSAGKRGGFNTFRDRENYDRGYSSLLKRDFGAKTQNGVYSAANYTNGSFGSNFVSAGIQTSFRTGNPTGTYQNGYDSTQQYGSNVPNMHNGMNQQAYAYPATAAAPMIGYPMPTGYSQ
notes: Present in nuclear extracts or total lysates of Cos7 cells transfected with the p68 construct; also called Ddx5; DDX5

Key:
[1] = target: B3; assay: GST pull-down from nuclear extracts of p68-transfected Cos7 cells, immunoblot with anti-p68
[2] = target: B3; assay: in vitro pull-down, data not shown
[3] = target: T1, GST-Smad4(FL) fusion protein (UniProt P08515 1-218 = GST; Q13485 1-552); assay: GST pull-down from nuclear extracts of p68-transfected Cos7 cells, immunoblot with anti-p68
T1 construct: also called s4
T1 sequence (P08515 1-218, tags or fused parts left off): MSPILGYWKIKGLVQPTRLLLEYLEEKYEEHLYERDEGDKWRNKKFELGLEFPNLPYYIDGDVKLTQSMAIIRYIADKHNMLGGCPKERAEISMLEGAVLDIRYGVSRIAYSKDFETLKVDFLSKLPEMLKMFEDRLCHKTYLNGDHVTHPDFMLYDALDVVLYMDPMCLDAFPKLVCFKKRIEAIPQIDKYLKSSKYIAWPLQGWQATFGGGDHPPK

Q: Does B1 bind [1]?
A: Result: no binding

Q: Does B2 bind [2]?
A: Result: no binding

Q: Does B3 bind [3]?
A: Result: no binding
